Results: patent US20250144178A1, “PHARMACEUTICAL COMPOSITION FOR CANCER TREATMENT COMPRISING FUSION PROTEIN INCLUDING IL-12 AND ANTI-FAP ANTIBODY AND ANTICANCER AGENT” (KANAPH THERAPEUTICS INC., priority 2022, published 2025)
Each block holds one substance with its values, some of them ahead of it.

Columns and labels:
B16F10 = assay: flow cytometry on parental B16F10 cells, anti-mouse IgG2a antibody alone
[1] = molecular target: mouse FAP (fibroblast activation protein alpha) overexpressed in B16F10 cells (B16F10-mFAP) (mouse) (UniProt P97321); assay: flow cytometry on B16F10-mFAP cells, anti-mouse IgG2a antibody alone
[2] = molecular target: human FAP (fibroblast activation protein alpha) overexpressed in HEK293 cells (HEK293-hFAP) (human) (UniProt Q12884); assay: flow cytometry on HEK293-hFAP cells, anti-human IgG antibody alone
[3] = molecular target: IL-12 receptor of human T cells (human) (UniProt P42701); assay: cell-based or functional assay
Chain of IL-12 receptor of human T cells (human) (Q99665 24-862, chain 2 of 2, other chains not shown): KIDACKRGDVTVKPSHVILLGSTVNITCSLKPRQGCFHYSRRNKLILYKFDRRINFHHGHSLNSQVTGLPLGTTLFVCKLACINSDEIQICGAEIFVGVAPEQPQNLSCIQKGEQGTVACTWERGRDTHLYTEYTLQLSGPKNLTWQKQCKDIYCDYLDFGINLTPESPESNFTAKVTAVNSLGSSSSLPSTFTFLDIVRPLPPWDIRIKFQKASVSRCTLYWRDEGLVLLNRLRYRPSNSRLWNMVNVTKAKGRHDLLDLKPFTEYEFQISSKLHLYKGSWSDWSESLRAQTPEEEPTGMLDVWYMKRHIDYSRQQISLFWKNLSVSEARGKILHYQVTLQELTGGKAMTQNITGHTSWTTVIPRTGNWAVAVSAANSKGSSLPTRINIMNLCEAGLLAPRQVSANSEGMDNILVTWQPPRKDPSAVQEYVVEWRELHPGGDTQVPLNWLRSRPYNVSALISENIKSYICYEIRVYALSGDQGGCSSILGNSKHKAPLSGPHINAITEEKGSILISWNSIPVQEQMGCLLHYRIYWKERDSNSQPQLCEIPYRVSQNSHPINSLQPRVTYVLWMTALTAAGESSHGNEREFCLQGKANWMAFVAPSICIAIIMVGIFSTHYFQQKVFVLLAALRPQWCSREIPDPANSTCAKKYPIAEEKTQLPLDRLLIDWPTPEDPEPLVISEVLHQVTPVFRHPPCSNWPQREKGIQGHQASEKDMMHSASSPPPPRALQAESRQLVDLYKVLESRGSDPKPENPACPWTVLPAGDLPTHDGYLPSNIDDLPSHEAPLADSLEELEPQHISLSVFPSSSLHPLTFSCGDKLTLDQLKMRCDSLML

Chain of mouse FAP (fibroblast activation protein alpha) overexpressed in B16F10 cells (B16F10-mFAP) (mouse) (P97321 whole entry): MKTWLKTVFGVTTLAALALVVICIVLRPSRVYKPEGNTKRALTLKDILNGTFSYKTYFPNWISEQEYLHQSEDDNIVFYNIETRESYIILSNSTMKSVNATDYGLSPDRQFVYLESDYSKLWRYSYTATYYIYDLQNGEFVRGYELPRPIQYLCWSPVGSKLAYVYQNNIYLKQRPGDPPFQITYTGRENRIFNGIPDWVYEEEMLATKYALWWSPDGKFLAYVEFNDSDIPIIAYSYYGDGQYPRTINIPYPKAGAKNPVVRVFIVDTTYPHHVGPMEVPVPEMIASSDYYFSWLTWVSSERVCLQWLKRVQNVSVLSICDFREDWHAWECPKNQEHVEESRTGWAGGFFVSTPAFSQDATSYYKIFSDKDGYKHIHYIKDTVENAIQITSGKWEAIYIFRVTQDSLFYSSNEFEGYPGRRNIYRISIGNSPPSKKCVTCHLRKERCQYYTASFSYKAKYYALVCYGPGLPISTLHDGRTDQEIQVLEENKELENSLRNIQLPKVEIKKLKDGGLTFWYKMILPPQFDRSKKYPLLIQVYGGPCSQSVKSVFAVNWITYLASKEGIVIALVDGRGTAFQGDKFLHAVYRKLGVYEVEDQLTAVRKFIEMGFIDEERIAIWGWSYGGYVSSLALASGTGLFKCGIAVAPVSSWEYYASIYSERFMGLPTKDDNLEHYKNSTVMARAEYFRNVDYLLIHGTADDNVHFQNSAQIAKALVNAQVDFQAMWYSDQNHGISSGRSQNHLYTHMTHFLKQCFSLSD
Chain of human FAP (fibroblast activation protein alpha) overexpressed in HEK293 cells (HEK293-hFAP) (human) (Q12884 whole entry): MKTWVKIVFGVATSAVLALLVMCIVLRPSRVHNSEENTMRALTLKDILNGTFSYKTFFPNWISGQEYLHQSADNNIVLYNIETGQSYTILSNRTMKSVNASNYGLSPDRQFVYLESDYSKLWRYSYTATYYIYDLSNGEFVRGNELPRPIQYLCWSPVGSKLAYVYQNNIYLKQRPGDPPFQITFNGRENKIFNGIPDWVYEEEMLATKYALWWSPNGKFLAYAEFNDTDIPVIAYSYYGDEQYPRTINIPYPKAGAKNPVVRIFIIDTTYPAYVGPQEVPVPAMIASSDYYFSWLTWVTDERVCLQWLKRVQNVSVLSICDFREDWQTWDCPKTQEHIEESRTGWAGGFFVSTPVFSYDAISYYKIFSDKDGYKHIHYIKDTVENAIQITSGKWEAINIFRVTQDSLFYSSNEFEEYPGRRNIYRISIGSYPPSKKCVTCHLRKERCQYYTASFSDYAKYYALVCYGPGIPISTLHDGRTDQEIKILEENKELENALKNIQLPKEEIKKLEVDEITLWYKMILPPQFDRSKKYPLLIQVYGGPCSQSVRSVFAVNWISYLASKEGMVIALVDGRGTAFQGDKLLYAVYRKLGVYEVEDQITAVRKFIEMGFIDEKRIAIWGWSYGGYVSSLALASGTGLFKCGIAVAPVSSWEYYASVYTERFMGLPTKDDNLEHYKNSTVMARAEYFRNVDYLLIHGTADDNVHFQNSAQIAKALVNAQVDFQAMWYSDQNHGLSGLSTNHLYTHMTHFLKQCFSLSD

- percent of cells in the positive gate (mFAP-PE) (B16F10): 1.04%
- percent of cells in the positive gate (mFAP-PE) [1]: 3.44%
Substance: 2nd Ab only (antibody)

- percent of cells in the positive gate (hFAP-PE) [2]: 0.16%
Substance: 2nd only (antibody)

- half maximal effective concentration (EC50) of p-STAT4 (Tyr693), AlphaLISA, activated human T cells [3]: 8.95 pM
Substance: recombinant human IL-12 (from UniProt P29459 23-219; P29460 23-328) (ligand)
